# The DeepSol protein solubility set
# Assay: soluble on expression in E. coli; label from the status in PepcDB or PDB records
row,Sequence,soluble on expression in E. coli
1,INYRCPKRVITLINNIRKGDDQNVQVPKEDAIDGFVRLFIVDSNTTDKLELENKIRFQMAMLTHDEDWNIAEEVKTLTLEHDMAASRGGFDEFLLPLSSVSSLRDAALNGTSKNINFITSTLLPFIDAVEKDDSFEVARIIKSGSLLISDSNQSFLLNPIGTLKDIDSNVVEFKKILVNGKVTLHNVLSTIQKFELLSLPDELLVYLSDIEQGEPNEPESDTKLLSDVDKAWGLALNSSIGHVKNYAKYVNETLGYATHQGVKGLEYKRVMAVLDDKFKGFLFDYEKLFGAKDLTKKDIENEDLGKDSALSRTRRLFYVICSRAEQSLAVVAYSNDPIAIEKTAIESEWFSKDEIVLI,not soluble
2,MGLADDAPLGYLLYRVGAVLRPEVSAALSPLGLTLPEFVCLRMLSQSPGLSSAELARHASVTPQAMNTVLRKLEDAGAVARPASVSSGRSLPATLTARGRALAKRAEAVVRAADARVLARLTAPQQREFKRMLEKLGSD,not soluble
3,MCLAIPSKVIAIKDNVVLLETLGVQREASLDLMGESVKVGDYVLLHIGYVMSKIDEKEALESIELYQEMIARMNETQ,not soluble
4,SGIGTGHTSMNKGGKDVTLLELSVEKRRWRINMETSKIILEKMQSDDVLDGNRERSNEREGRDSLSEKLKSKQNLKDEEKLRYIKTGKSIQVEGTVRAKALRWVQ,soluble
5,MAVTTTSESAAEFKEKNVSPVKVEFINAPEKDPGLNVEWQIQGTGYNNEGSGSVIYVRMKNLNDVAIPADAFDDPVLTINGTEASRVEAGTVDLDLPLGPGATTNLQFAFGTGYGSLSDAKLVLGNCIFEGNLSNI,not soluble
6,MPRLILASTSPWRRALLEKLTIPFECAAPDVDETPMPGEAPRQLVLRLAQAKAQSLAARFPNHLIIGSDQICVLDGEITGKPLTEEKARQQLAKASGNIVTFYTGLALYNSASGHLQTEVEPFDVHFRHLSEAEIDDYVRKEHPLHCAGSFKSEGLGIALFERLEGRDPNTLIGLPLIALCQMLRREGFNPLQQ,not soluble
7,MAQPYLPAEKFLSRKQETILLDEDEPAVVSSVRISPKKPYHVATTSSVRLTLYDTVVCEPLNLFSRFKKGVCSIDFRHDGRLLAIGGDEGKVRIFDVEKTTGSSKVALRVMQASQSTVKSVHFSPRGDTVFSMADDGKIKQYRVADTAYGVNAVPIIEIQAHEDAIRCGAVSSINDHIVLTGGYDHKVRLWDIRSKEKSLELDCEHPVESVLFLPGEQLIATAAGPIVKIWDTTTGRQLTALQAHYKTVTSLRLATNSTCLLSAGIDRRVNAFRTTNYSLINSWSMPSPVLDIDVSRDDQTMAIGMGNLLALYRRAEIKKEATASAAIEDKRSLIRTSAPPVKLVEKDRDMQKVDVVAKNADKLKIPKIDGMLSNFKHAAVIKLLFGGKFRSAMDTAVVSYLRVIVMRGAIHRALAGQERSVQKNILVFLNHNLYKAQYFSTLKEVVNAFFDVYALEKLDKDVVKHVQSLRGSLGRELEVQKMISSLIGSIDLIVSTTKMNVKSSSTALIEDNDVFGEPTIRARDLDELKPSDQGAEEEYEENMQIN,not soluble
8,MKRAFIMVLDSFGIGATEDAERFGDVGADTLGHIAEACAKGEADNGRKGPLNLPNLTRLGLAKAHEGSTGFIPAGMDGNAEVIGAYAWAHEMSSGKDTPSGHWEIAGVPVLFEWGYFSDHENSFPQELLDKLVERANLPGYLGNCHSSGTVILDQLGEEHMKTGKPIFYTSADSVFQIACHEETFGLDKLYELCEIAREELTNGGYNIGRVIARPFIGDKAGNFQRTGNRHDLAVEPPAPTVLQKLVDEKHGQVVSVGKIADIYANCGITKKVKATGLDALFDATIKEMKEAGDNTIVFTNFVDFDSSWGHRRDVAGYAAGLELFDRRLPELMSLLRDDDILILTADHGCDPTWTGTDHTREHIPVLVYGPKVKPGSLGHRETFADIGQTLAKYFGTSDMEYGKAMF,not soluble
9,MGSDKIHHHHHHMMAVLHRSSDIIAATICRILIPQFYSDNTVPINGNYSCIFLLSYMFPLDSPLLADLYKKYRSRLISRIARLTGCRETAADLAQDAYMRLLDQTGVACPSNPAAYLFRIGRNLAIDHQRRPDFRQHDETSFEEELPSSFSGLDQQAVYRQECEQLWTAIMELPRPVSRALVLSVIEGVSQAAIAEELGVTERTVRRYISKGMAHCQRRLRNPLPPARYDR,not soluble
10,MSRARCERCLRPAGHCLCPLIPQLPSRTRVLLLQHPSEVNHALNTARLAALGLNNAELVVGEVFEELPALLDQPGYRACLLFPADDARPLQAYAETDVPLLLVVPDGTWRKARKLLHLNPLLAALPRVTLATGVESRYRLRKAPGPGALSTVEAIVQALQVLEAPASFEPLLRPFEALIEGQIAAMGEDTYQRNHAKSAAALEHHHHHH,not soluble
11,MSVFHDEVEIEDFEFDEEKDVYHYPCPCGDRFEIPREMLEMGEDVAQCPSCSLLIRVIYDPEDFVKLETISTSKPIAEPV,not soluble
12,MVAVKGLSEREVVADTVIWPIQFTVADNQLSSLFATVDQQTQLITQFLVEKGVDRAAISLSAPAVIDKKAQQYGEDRAEFRYLATQTLTVYSKQVDQVRKIISEIGQLGKQGVVFNQDPYNNRVEFSFTGLNAIKPDMIEEATKQAREVAQKFAKDSQSTLGKIKTASQGQFSITDRDNNTPYIKNVRVVTTVEYYLSDLEHHHHHH,not soluble
13,YKEEDSTVSILPTSLPQIHRANMLAQGSPAASKISPLVTKKSKTRWHFGIRSRSYPLDVMGEIYIALKNLGAEWAKPSEEDLWTIKLRWKYDIGNKTNTNEKIPDLMKMVIQLFQIETNNYLVDFKFDGWESSYGDDTTVSNISEDEMSTFSAYPFLHLTTKLIMELAVNS,soluble
14,MRIEEDLKLGFKDVLIRPKRSTLKSRSDVELERQFTFKHSGQSWSGVPIIAANMDTVGTFSMASALASFDILTAVHKHYSVEEWQAFINNSSADVLKHVMVSTGTSDADFEKTKQILDLNPALNFVCIDVANGYSEHFVQFVAKAREAWPTKTICAGNVVTGEMCEELILSGADIVKVGIGPGSVCTTRVKTGVGYPQLSAVIECADAAHGLGGMIVSDGGCTTPGDVAKAFGGGADFVMLGGMLAGHEESGGRIVEENGEKFMLFYGMSSESAMKRHVGGVAEYRAAEGKTVKLPLRGPVENTARDILGGLRSACTYVGASRLKELTKRTTFIRVQEQENRIFNNL,soluble
15,MSLYIDGTFSYSLYRKICTDRSAVNKASNTQESSVAKPSIIKTSENPLQTIEVEVYDEYGEKLVKSIACERPLTVLLNWKEIVTLMTLGSRPEALVLGYLKNQSFISDPEALDSIIIDWETHSAAVVTRENIDHLEPALKKKTVTSGCGQGTMYGNVMKQLEHYQVPQQPIKQSQIYAALEALTHYNDTYKKAGAVHGCAICQEDRVLSFVEDVGRHNAVDTLAGEMWLNGMRGDDKIFYTTGRLTSEMVIKVAQMGIPVLLSRSGVTQMGLELAQRFGITTIARASGRRFHVYSGADKMVFDVKGHSEEAEGHHHHHH,soluble
16,MGSDKIHHHHHHMKVLLTRPQGRNQAMEEQLSLRDVAYLVTPLLSVVETTEQLNPTHLNNTDNLLFISSNAVDFAAQKLQQQFPTHCRYFAVGQATADSLAQYNINAFTSPEHSQDSEGLLSLAQLQDVDKQSFIIVRGLGGRETLAEQLQLRGANVNYWQVYQRAIPNLDGKAITQQWKSFGIDTIVVTSGEILSNLVELVPKELFAWLRACHIIVPSNRVELQAKAMGLSHISNANGANTQAILASLAL,not soluble
17,MSLKVSVIIPTYNERENLEELFSRIDNALQGLNYEIVVVDDDSPDRTWEKAQELSSKYPVKVIRRTKEKGLSSAVIRGFKEASGDVFVVMDADLQHPPEVIPKLIEAIKNGSDIAIGSRYVKGGKVENWPFYRKLISKGAIMVGRIALPKIRDIKDPVSGFFALRKEVVEGVELNPIGFKILMEILIKGKYSKVVEVPFTFGIRARGESKLKGKTIFEYLRHIYRLMKWEGEIDREGHHHHHH,soluble
18,MPKKVLIFCDPGIDDTMALLLAFFIDEIEIVGIVADYGNVPKKMAVENAHFFNNETKNRNIKIFGGSERPLTGAPPAFFTDVHGKQGLGPIIPKVNVTNGEMENFFEVIPLIEQYKDELIIVSLGRLTSLAILFIMCKQLMKQIKSYYVMGGAFLHPGNVTPISEANFYGDPTAANIVLQSTANMYIYPLNVTQYSIITPEMAEYIEAKGKAPLVKTLFDHYYYGYYKDALPHLKGSPFHDTIPILALLDNSMFTYHKSPIVVMTESYAQGASIGEFRSLGESKPFIDWPSHQIAIDFDYNRFFKHFMSLMTGEQF,not soluble
19,MTLSIIVAHDKQRVIGYQNQLPWHLPNDLKHIKQLTTGNTLVMARKTFESIGKPLPNRRNVVLTNQASFHHEGVDVINSLDEIKELSGHVFIFGGQTLYEAMIDQVDDMYITVIDGKFQGDTFFPPYTFEDWEVESSVEGQLDEKNTIPHTFLHLVRRKGK,soluble
20,HEHNTIPKGASIEVKVQQLDPVNGNKDVGTVTITESNYGLVFTPDLQGLSEGLHGFHIHENPSCEPKEEEGELTAGLGAGGHWDPKGAKQHGYPWQDDAHLGDLPALTVLHDGTATNPVLAPRLKHLDDVRGHSIMIHTGGDNHSDHPAPLGGGGPRMACGVIK,soluble
21,MCFINLRSVADTINTQTRRITMFTYYQAENSTAEPALVNAIEQGLRAQHGVVTEDDILMELTKWVEASDNDILSDIYQQTINYVVSGQHPTLLEHHHHHH,not soluble
22,GPGSMEWSSQSALPGVEGSPGYGRLCSATSGGVGAFQQFSPATAATVGDTTSVPTEAPSSVSITVGEAMDGVALQCERRGLTNAATWLSEMSLHALPSLLATPLQACSYGGHGGNSLFSPLHRAIHLDSGVFGDHAIAGGVRSTPSAGWQRLHRVALGYFIKGEYQRCHHLILREVMRNTAVGSSCGVPLPSTTQRTWPMPAGEVPDNEGGLSLPLPEVVRGFRTTTLPPLLQFLSLYALFMDGVKAKQLSNNASQGGGAESSSMGRGGQQRALHPHARVLRAYLLEAMRNPVNMLNLPSSNNSDPEPQHGDGGDDGAALHVAVGGALPGAHHTSSAKRPWTTSSAVWLASRAVSAATTTGTAAVMTAGASASRPRGNKAGQLHARYSLPLHCCLVCLLERLSSRLSSRESSGSARRRIGSGTYVGLVAYRSVPVVAHGCSAAGTSHAPGKCDVSAGGGECQPTTAVRLGRPRVPRES,not soluble
23,MEVPENLKNPQNARREGSNMKCLADYSVEKEVGEGSFSTVYLARRKEPKNDENPEVALKICLKRLILKNKMVPYIHREKEALALISREENAHPGIVTLYATFQDSESLYFVLEYAKYGDLCTLMQKQPDSKFNVADSRYYAANLLSALEHIHKLGIIHRDVKADNLLVKSDGRIMLTDFGSSKFLSDYQKIQENPVEEEQPTGRRSSFVGTAFFVTPELLTGSEMSPSSDLWAFSVTLYLFLTGIYPFNDMSEYLVFRRIQDILYTFSEDFPDENAKNLIERLLVKEQKSRLTSQEIKEHKFFESIDFEHLEQLEPPRIY,not soluble
